Measured values taken from patent publication US20250011380A1.

How the values were obtained:
Assay in all cases: cell-based or functional assay
IL-21R on B9 cells = target: IL-21R on B9 cells
IL2Rαβγ on CTLL2 cells = target: IL2Rαβγ on CTLL2 cells
[1] = target: IL-2Rβ and common γ chain on 32Dβ cells

Chain of IL2Rαβγ on CTLL2 cells (P01590 22-268, chain 1 of 3): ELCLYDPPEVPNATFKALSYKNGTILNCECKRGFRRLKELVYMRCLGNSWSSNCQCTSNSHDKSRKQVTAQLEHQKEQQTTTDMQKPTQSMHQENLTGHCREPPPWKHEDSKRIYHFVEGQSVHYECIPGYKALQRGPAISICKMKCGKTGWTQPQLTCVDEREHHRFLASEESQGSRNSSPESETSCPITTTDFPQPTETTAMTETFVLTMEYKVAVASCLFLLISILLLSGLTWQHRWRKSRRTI
Chain of IL2Rαβγ on CTLL2 cells (P16297 27-539, chain 2 of 3, further chain): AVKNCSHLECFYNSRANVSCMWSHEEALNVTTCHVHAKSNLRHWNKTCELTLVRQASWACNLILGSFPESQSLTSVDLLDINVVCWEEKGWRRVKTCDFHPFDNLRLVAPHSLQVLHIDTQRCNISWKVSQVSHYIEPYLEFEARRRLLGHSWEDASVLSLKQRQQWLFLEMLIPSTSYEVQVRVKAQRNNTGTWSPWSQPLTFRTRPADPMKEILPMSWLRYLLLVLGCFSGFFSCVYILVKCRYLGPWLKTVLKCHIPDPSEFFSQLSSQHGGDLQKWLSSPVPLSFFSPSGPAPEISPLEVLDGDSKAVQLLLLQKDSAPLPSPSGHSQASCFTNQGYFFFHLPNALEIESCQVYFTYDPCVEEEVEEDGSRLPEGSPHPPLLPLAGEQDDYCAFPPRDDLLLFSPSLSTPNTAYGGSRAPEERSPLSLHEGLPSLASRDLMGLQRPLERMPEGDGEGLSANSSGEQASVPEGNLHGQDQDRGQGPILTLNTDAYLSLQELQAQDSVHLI
Chain of IL2Rαβγ on CTLL2 cells (P34902 23-369, chain 3 of 3, further chain): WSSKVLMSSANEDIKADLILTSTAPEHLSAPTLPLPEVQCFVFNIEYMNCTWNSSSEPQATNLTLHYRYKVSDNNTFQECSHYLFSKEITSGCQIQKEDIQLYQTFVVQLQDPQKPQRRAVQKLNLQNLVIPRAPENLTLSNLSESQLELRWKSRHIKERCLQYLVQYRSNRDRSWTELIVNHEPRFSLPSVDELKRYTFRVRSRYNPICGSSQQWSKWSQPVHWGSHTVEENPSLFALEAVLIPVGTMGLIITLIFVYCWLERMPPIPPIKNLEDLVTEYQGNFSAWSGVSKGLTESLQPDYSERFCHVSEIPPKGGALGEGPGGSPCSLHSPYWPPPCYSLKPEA

Row | Substance | EC50, B9 cell proliferation (WST1) (IL-21R on B9 cells) [nM] | EC50, CTLL-2 cell proliferation (WST1) (IL2Rαβγ on CTLL2 cells) [nM] | EC50, 32Dβ cell proliferation (WST1) [1] [nM]
1 | recombinant IL-21 (from UniProt Q9HBE4 32-162) (ligand) | 72.5 | – | –
2 | recombinant IL-2 (from UniProt P60568 21-153) (ligand) | – | 0.548 | 0.14
